In paper PMC10126545:

Molecular target: COBRA P1 HA ectodomain, insect-cell expressed, Foldon and tags removed by thrombin
Experiment: SEC; Superdex 200 16/600 in 50 mM NaCl, 10 mM Tris pH 7.5, after thrombin digestion that removed the Foldon and tags

Substance: COBRA P1 HA ectodomain, insect-cell expressed, Foldon and tags removed by thrombin
- stoichiometry N: 3
